Broadly, the IC50 is the concentration needed to halve the response being measured. As a reminder, the Kd is the concentration at which binding is half-saturated. The koff is the first-order rate constant of dissociation. Usually kon stands for the second-order rate constant of association.

These results are taken from patent publication US20060286112A1.

First the molecules themselves.
B1: 6.17 (antibody, V domains shown)
VH: EVQLVQSGAEVKKPGESLRISCKGSGYSVSSYWIGWVRQMPGKGLEWMGIIYPGDSDTRYSPSFQGQVTISADKSISTAFLQWISLKASDTAMYYCARLQGDCSGGSCYGHFDYWGQGTLVTVS
VL: EIVLTQSPGTLSLSPGERATLSCRASQTISSGYLAWYQQKPAQAPRLLIYVASRRATGIPDRFSGSGSGTDFTLTISRLEPEDFAVYYCQQYGSSSWTFGQGTTVEIK
B2: 6.18 (antibody, V domains shown)
VH: B1 VH with S30T, F80Y, I84S, S107T
VL: B1 VL with T28S, I29V, G32S, S94T
B3: 6.48 (antibody, V domains shown)
VH: B1 VH with Y114C
VL: DVVLTQSPLSLPVTLGQPASISCRSSQSLVNSDGDTYLSWFQQWPGQSPRRLFYEVSNWDSGVPDRFSGSGSGTDFTLKISRVEAEDVGVYYCMQGTHWLTFGGGTKVEIK
B4: 3.2 (antibody, V domains shown)
VH: QVQLVESGGGVVQPGRSLRLSCAASGFTFSSYGIHWVRQAPGKGLEWVAVIWYDGSDIYYADSVKGRFTISRDNSKNTLYLQMNSLRAEDTALYYCARESSGWTFDYWGQGTLVTVSS
VL: QSALTQPASVSGSPGQSITISCTGTSSDVGGYNYVSWYQQHPGKAPKLMIYEVSNRPSGISNRFSGSKSGNTASLTISGLQAEDEADYYCSSYTSSSTIIFGGGTKLTVL
B5: 2.7 (antibody, V domains shown)
VH: EVQLVESGGGLVKPGGSLRLSCAASGFTFSNAWMSWVRQAPGKGLEWVGRIKRKTDGETTDYAAPVKGRFTISRDDSRNTLYLQMNSLKTEDTAVYYCTIYTYYYGMDVWGQGTTVTVSS
VL: DIQMTQSPSSLSASVGDRVTITCRASQSINNYLNWYQQKPGKAPKLLIYAASSLESGVPSRFSGSGSGTDFTLTISSLQPEDFATYYCQQSYSTPPTFGQGTKVEIK
B6: 2.19 (antibody, V domains shown)
VH: QVQLQESGPGLVKPSETLSLTCTVSGDSISSYYWSWIRQPPGKGLEWIGYVYYSGSTNYNPSLKSRVTMSVDTSKNQFSLKLSSVTAADTAVYYCARDLELYAFDIWGQGTMVTVSS
VL: EIVLTQFPGTLSLSPGERVTLSCRASQSVSSTYVVWYQQKPGQAPRLLIYGASSRATGIPDRFSGSGSGTDFTLTISRLEPEDFAVYYCQQHGSSPWTFGQGTKVEIK
B7: 10.1 (antibody, V domains shown)
VH: QVQLQQSGPGLVKPSETLSLTCTVSGASISSYYWSWIRQPAGKGLEWIGRIYASGSTNYNPSLKSRVTMSVDTSKSQFSLNLSSVTAADTAVYYCAREGWERLQDYYYYGLDVWGQGTTVTVSS
VL: B6 VL with F7S, V19A, S31R, T32N, V34L, V35A, Y37N, H92Y, W97L, Q101G
B8: 2.11 (antibody, V domains shown)
VH: QVQLQESGPGLVKPSQTLSLTCTVSGGSINSGGYYWSWIRQHPGKGLEWIGYIFYSGSTYYNPSLKSRVNISVDTSKNQFSLKMSSVTAADTAVYYCARDQDGFDYWGQGTLVTVSS
VL: DIVMTQTPLSLPVTPGEPASISCRSSQSLLDSDDGNTYLDWYLQKPGQSPQLLIYTLSYRASGVPDRFSGSGSGTDFTLKISRVEAEDVGVYYCMQRIEFPWTFGQGTKVEIK
B9: 2.25 (antibody, V domains shown)
VH: QVQLQQSGPGLVKPSQTLSLTCAISGDSVSSNSAAWNWIRQSPSRGLEWLGRTYYMSKWYNDYAVSVKSRITINPDTSKNQFSLQLNSVTPEDTAVYYCARARYCGGDCYDFDYWGQGTLVTVSS
VL: B5 VL with Q6H, N30S, N31I, Y32S, K42N, E55Q, V58I, Y92F, P96W
B10: 2.1 (antibody, V domains shown)
VH: QVQLQESGPGLVKPSQTLSLTCTVSGGSISSGGYYWSWIRQHPGKGLEWIGYIYNSGSTYYNPSLKSRGTISADTSKNQFSLKLSSVTAADTAVYYCARGSSSYYWYFDLWGRGTLVTVSS
VL: DIQMTQSPSSMSASVGDRVTITCRASQRISSNLNWYQQKPGKAPKFLIYGASSLQSGVPSRFSGSGSGTDFTLTISSLRPEDFATYYCQQSYSTPYTFGPGTKVDIK
B11: 6.3 (antibody, V domains shown)
VH: QVLLQESGPGLVKPSQTLSLTCTVSGGSISSGGYYWSWIRQHPGKGLEWIGYINYSGSAYYNPSLKSRVTISVDTSKNQFSLKLSSVTAADTAVYYCARDHWLLRGFDYWGQGTLVTVSS
VL: DIVMTQTPLSLSVTPGQPASISCKSSQSLLHSDGKTYLYWYLQKPGQPPQLLIYEVSNRFSGVPDRFSGSGSGTDFTLKISRVEAEDVGVYYCMQSIQLPRTFGQGTKVEIK

Residue numbers refer to the chain shown, from its start.

I domain-GST, recombinant GST fusion protein containing amino acids 127-340 of the human VLA-1 α1 subunit (human), sequence (P56199 151-364 limits assumed, form in doubt): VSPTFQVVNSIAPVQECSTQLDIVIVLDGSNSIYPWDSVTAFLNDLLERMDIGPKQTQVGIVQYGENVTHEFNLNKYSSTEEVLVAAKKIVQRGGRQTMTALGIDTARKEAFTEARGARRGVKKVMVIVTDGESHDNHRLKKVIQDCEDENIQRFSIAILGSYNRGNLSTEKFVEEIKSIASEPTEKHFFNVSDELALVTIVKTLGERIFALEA

For the first assay, the target named is biotinylated I domain-GST (human) (UniProt P56199). Put plainly: competition: I domain-btn binding to immobilized collagen IV, streptavidin-HRP.
B1 gave an IC50 of 7.6 nM.

The molecule B2 came in with a concentration for half-maximal inhibition (IC50) of 3.3 nM.

Molecule B3 displayed a concentration for half-maximal inhibition (IC50) of 6.1 nM.

In the case of B4, the IC50 is 1.6 nM.

Molecule B5 showed an IC50 of 2.4 nM.

B6: the IC50 amounted to 3 nM.

Regarding B7, the IC50 was found to be 3.1 nM.

Substrate in a further assay: I domain-GST, recombinant GST fusion protein containing amino acids 127-340 of the human VLA-1 α1 subunit (human) (UniProt P56199)
Kind of assay: SPR, mAb captured on anti-human IgG, I domain-GST in solution, 1 mM Mg2+, titration screen (*). A general note: Surface plasmon resonance follows binding to a sensor surface in real time, without labels.
As to B1, the dissociation constant (Kd) was 0.255 nM, the koff amounted to 0.000136 s⁻¹ and the kon is 533000 M⁻¹ s⁻¹.

As to B2, the Kd was 0.138 nM, the dissociation rate constant (koff) is 7.2e-05 s⁻¹ and the kon was 523000 M⁻¹ s⁻¹.

For the molecule B3, the Kd stood at 0.216 nM, the koff worked out at 0.000121 s⁻¹ and the kon came to 561000 M⁻¹ s⁻¹.

As for B8, the dissociation constant (Kd) was found to be 0.025 nM, the koff came out at 8e-06 s⁻¹ and the kon was found to be 318000 M⁻¹ s⁻¹.

Consider B5, for which the Kd was found to be 0.117 nM, the dissociation rate constant (koff) was found to be 3.77e-05 s⁻¹ and the on-rate constant (kon) was 321000 M⁻¹ s⁻¹.

As for B7, the equilibrium dissociation constant (Kd) is 0.068 nM, the off-rate constant (koff) was found to be 3.1e-05 s⁻¹ and the association rate constant (kon) turned out to be 453000 M⁻¹ s⁻¹.

Substrate in a further assay: I domain-GST, recombinant GST fusion protein containing amino acids 127-340 of the human VLA-1 α1 subunit (human) (UniProt P56199)
Kind of assay: competition: I domain-GST binding to immobilized collagen IV, anti-GST-HRP.
B1: the half-inhibitory concentration (IC50) was 12 nM.

For the molecule B2, the IC50 came to 7.6 nM.

For B3, the half-maximal inhibitory concentration (IC50) stood at 9.8 nM.

Consider B4, for which the IC50 came to 3.2 nM.

With B5, the IC50 was 6.4 nM.

Take B6: the IC50 came out at 7.4 nM.

Turning to B7, the IC50 was 5.5 nM.

Substrate in a further assay: I domain-GST, recombinant GST fusion protein containing amino acids 127-340 of the human VLA-1 α1 subunit (human) (UniProt P56199)
Put plainly: SPR, mAb captured on anti-human IgG, I domain-GST in solution, 1 mM Mg2+.
As to B4, the equilibrium dissociation constant (Kd) came out at 0.04 nM, the off-rate (koff) worked out at 1.43e-05 s⁻¹ and the on-rate constant (kon) turned out to be 354000 M⁻¹ s⁻¹.

Regarding B9, the Kd came to 1.57 nM, the koff is 1.3e-05 s⁻¹ and the kon was determined as 8300 M⁻¹ s⁻¹.

As to B6, the Kd was 0.243 nM, the koff was found to be 0.000131 s⁻¹ and the kon is 538000 M⁻¹ s⁻¹.

Substrate in another assay: I domain-GST, recombinant GST fusion protein containing amino acids 127-340 of the human VLA-1 α1 subunit (human) (UniProt P56199)
Kind of assay: SPR, mAb captured on anti-human IgG, I domain-GST in solution, no Mg2+, titration screen (*).
Turning to B2, the Kd was found to be 0.574 nM, the koff was 7.08e-05 s⁻¹ and the on-rate constant (kon) came to 123000 M⁻¹ s⁻¹.

B5: the off-rate (koff) stood at 8.22e-05 s⁻¹ and the kon was 134000 M⁻¹ s⁻¹.

Substrate in the next assay: I domain-GST, recombinant GST fusion protein containing amino acids 127-340 of the human VLA-1 α1 subunit (human) (UniProt P56199)
Put plainly: SPR, mAb captured on anti-human IgG, I domain-GST in solution, no Mg2+.
For the molecule B1, the Kd turned out to be 1.63 nM, the dissociation rate constant (koff) is 0.000154 s⁻¹ and the kon was determined as 94600 M⁻¹ s⁻¹.

On to B10, for which the equilibrium dissociation constant (Kd) was 4.62 nM, the koff was 0.00211 s⁻¹ and the kon is 456000 M⁻¹ s⁻¹.

Regarding B11, the equilibrium dissociation constant (Kd) is 1.69 nM, the dissociation rate constant (koff) came out at 0.000243 s⁻¹ and the kon came to 144000 M⁻¹ s⁻¹.

Consider B8, for which the Kd stood at 0.889 nM, the koff was determined as 0.000208 s⁻¹ and the association rate constant (kon) is 234000 M⁻¹ s⁻¹.

Regarding B9, the Kd came to 1.46 nM, the koff was determined as 0.000111 s⁻¹ and the kon was found to be 75800 M⁻¹ s⁻¹.

As to B6, the Kd was 0.478 nM, the koff is 5.93e-05 s⁻¹ and the kon was 124000 M⁻¹ s⁻¹.

On to B7, for which the Kd was 1.04 nM, the koff stood at 0.000173 s⁻¹ and the kon was 166000 M⁻¹ s⁻¹.
